Experimental data reported in PMC9191892.

What was measured:
[1] = biological target: ribosomes (80S monosomes and polysomes) (S. cerevisiae (endogenous in BY4741)); assay: co-sedimentation; formaldehyde-crosslinked cell extracts (unstressed or H2O2-treated) on 15-50% sucrose gradients, SW41 Ti 2.5 hr at 278,000 x g, 4°C; fractions western blotted
[2] = biological target: ribosomes (80S monosomes and polysomes) (S. cerevisiae (endogenous in BY4741)); assay: co-sedimentation; polysomal proteomics: formaldehyde-crosslinked extracts (unstressed, H2O2, 3-AT) on 15-50% sucrose gradients, fractions F1-F5 against totals by label-free MS; percent ribosome association estimated from the fraction sum to total ratio

percent in ribosomal fractions [1] [%] | percent ribosome associated (H2O2-treated extract) [1] [%] | percent ribosome associated (H2O2-treated extract) [2] [%] | Binder
10 | 13 |  | Aat2-TAP (cytosolic aspartate aminotransferase with a C-terminal TAP tag) (enzyme) MSATLFNNIELLPPDALFGIKQRYGQDQRATKVDLGIGAYRDDNGKPWVLPSVKAAEKLIHNDSSYNHEYLGITGLPSLTSNAAKIIFGTQSDAFQEDRVISVQSLSGTGALHISAKFFSKFFPDKLVYLSKPTWANHMAIFENQGLKTATYPYWANETKSLDLNGFLNAIQKAPEGSIFVLHSCAHNPTGLDPTSEQWVQIVDAIASKNHIALFDTAYQGFATGDLDKDAYAVRLGVEKLSTVSPVFVCQSFAKNAGMYGERVGCFHLALTKQAQNKTIKPAVTSQLAKIIRSEVSNPPAYGAKIVAKLLETPELTEQWHKDMVTMSSRITKMRHALRDHLVKLGTPGNWDHIVNQCGMFSFTGLTPQMVKRLEETHAVYLVASGRASIAGLNQGNVEYVAKAIDEVVRFYTIEAKL
 |  | 9 | Aat2 (cytosolic aspartate aminotransferase), untagged (enzyme) MSATLFNNIELLPPDALFGIKQRYGQDQRATKVDLGIGAYRDDNGKPWVLPSVKAAEKLIHNDSSYNHEYLGITGLPSLTSNAAKIIFGTQSDAFQEDRVISVQSLSGTGALHISAKFFSKFFPDKLVYLSKPTWANHMAIFENQGLKTATYPYWANETKSLDLNGFLNAIQKAPEGSIFVLHSCAHNPTGLDPTSEQWVQIVDAIASKNHIALFDTAYQGFATGDLDKDAYAVRLGVEKLSTVSPVFVCQSFAKNAGMYGERVGCFHLALTKQAQNKTIKPAVTSQLAKIIRSEVSNPPAYGAKIVAKLLETPELTEQWHKDMVTMSSRITKMRHALRDHLVKLGTPGNWDHIVNQCGMFSFTGLTPQMVKRLEETHAVYLVASGRASIAGLNQGNVEYVAKAIDEVVRFYTIEAKL
